{
  "source": "paper PMC8102920",
  "test_system": "eIF3 complex (purified, 13 subunits a-m) (rabbit (reticulocyte lysate))",
  "test": "EMSA",
  "conditions": "EMSA: 25 mM Tris-HCl pH 7.5, 5 mM Mg(OAc)2, 70 mM KCl, 0.1 mM CaCl2, 0.1 mg/ml BSA, 2 mM TCEP, 30 min at 25 C, 0.7% agarose in TBE, 75 mM KCl, 4 C; for binding signal (% RNA shifted at high eIF3): high eIF3 (4-8 uM lanes quantified)",
  "data": [
    {"substance": "H4 241-375 (eIF3-BS)", "values": [
      {"measurement": "binding signal (% RNA shifted at high eIF3)", "result": 39}
    ]},
    {"substance": "H4 137-241 (4E-SE)", "values": [
      {"measurement": "binding signal (% RNA shifted at high eIF3)", "result": 14}
    ]},
    {"substance": "H4 1-137 (TWJ)", "values": [
      {"measurement": "binding signal (% RNA shifted at high eIF3)", "result": 28}
    ]},
    {"substance": "H4 FL mRNA (1-375)", "values": [
      {"measurement": "Kd", "result": 4, "unit": "µM"}
    ]}
  ]
}
